# Bridges are numbered along the chain shown (N, C = ends). Where no end group is shown, it is not given here. [ ]: non-standard residue; d: D form. Dip = N[C@H](C(=O)O)C(c1ccccc1)c1ccccc1
# What was measured:
# [1] = target: T1, meditope-enabled trastuzumab; test: SPR; earlier SPR study of paragraph 680, approximate binding constant stated in text
# T1 construct: Full IgG expressed in mammalian cells; also called TM; trastuzumab memAb
# [2] = target: T2, wild-type M5A (anti-CEA antibody); test: FACS, LS174T cells with 500 nM AF488 wild-type M5A and 9 µM AF647-MPL, 30 min [upper right histogram]
# T2 construct: Humanized antibody with the same backbone as trastuzumab
# T2 sequence (light, as listed by the source, chain 1 of 2): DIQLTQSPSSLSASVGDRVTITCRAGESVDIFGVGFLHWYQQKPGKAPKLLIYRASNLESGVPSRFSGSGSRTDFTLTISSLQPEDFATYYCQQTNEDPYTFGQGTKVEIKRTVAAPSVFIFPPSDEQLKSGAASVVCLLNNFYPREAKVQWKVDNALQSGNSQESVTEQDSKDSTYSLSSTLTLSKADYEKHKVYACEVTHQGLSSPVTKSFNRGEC
# T2 sequence (heavy, as listed by the source, chain 2 of 2): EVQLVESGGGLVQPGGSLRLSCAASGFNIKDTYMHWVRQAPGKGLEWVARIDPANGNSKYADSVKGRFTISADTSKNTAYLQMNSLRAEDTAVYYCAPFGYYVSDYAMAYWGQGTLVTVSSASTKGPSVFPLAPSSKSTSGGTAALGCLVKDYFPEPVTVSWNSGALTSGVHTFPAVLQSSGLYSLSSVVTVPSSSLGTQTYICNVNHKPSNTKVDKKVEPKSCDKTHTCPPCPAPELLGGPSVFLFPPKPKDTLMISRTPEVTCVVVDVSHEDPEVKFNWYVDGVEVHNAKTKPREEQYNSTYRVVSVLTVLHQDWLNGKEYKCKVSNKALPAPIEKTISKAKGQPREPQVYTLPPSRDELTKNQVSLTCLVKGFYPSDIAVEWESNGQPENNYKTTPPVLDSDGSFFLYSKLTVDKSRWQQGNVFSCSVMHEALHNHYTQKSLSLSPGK
# Procedure: (§1) Cells were washed twice with 0.1% BSA and FACS analysis was performed.
# [3] = target: T3, meditope-enabled M5A (M5A 8M); test: FACS, LS174T cells with 500 nM AF488 M5A 8M and 9 µM AF647-MPL, 30 min [upper right histogram]
# T3 construct: Eight point mutations in the light chain; wild-type heavy chain; expressed in NS0 cells; also called meditope-enabled anti-CEA antibody
# T3 sequence (light, as listed by the source, chain 1 of 2): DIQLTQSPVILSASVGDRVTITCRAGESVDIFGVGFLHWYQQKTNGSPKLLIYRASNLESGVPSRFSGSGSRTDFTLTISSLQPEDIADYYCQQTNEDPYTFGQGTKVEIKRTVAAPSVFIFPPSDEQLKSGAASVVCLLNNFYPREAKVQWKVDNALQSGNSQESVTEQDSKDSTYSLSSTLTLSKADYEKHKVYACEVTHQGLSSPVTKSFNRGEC
# T3 sequence (heavy, as listed by the source, chain 2 of 2): as the sequence (heavy, as listed by the source, chain 2 of 2) above
# Procedure: as §1
# [4] = target: T4, wild-type trastuzumab; test: FACS, SKBR3 cells pre-treated with AF488 wild-type trastuzumab, then 0.1 or 1 µM AF647-MPL (L3), washed extensively
# T4 construct: also called WT T
# T4 sequence (heavy, as listed by the source limits assumed, chain 1 of 2, other chains not shown): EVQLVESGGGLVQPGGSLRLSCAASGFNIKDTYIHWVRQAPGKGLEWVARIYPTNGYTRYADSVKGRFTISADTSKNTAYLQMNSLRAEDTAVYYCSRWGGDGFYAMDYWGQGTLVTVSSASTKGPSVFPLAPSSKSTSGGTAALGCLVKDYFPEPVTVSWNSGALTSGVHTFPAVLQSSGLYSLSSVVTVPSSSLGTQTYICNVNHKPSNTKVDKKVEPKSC
# [5] = target: T5, HER2 on SKBR3 cells (UniProt P04626 23-1255, limits assumed); test: FACS, SKBR3 cells without antibody
# T5 construct: whole, on cells; also called HER2-expressing cells (SKBR3)
# [6] = target: T4, wild-type trastuzumab; test: FACS, SKBR3 cells pre-bound with WT T, washed, then 0.1 or 1 µM Alexa 647-MPL-5K
# [7] = target: T3, meditope-enabled M5A (M5A 8M); test: SPR
# [8] = target: T3, meditope-enabled M5A (M5A 8M); test: SPR, kinetic fit, meditope at 10, 2, 0.4 and 0.08 uM over M5A 8M IgG immobilized at 5000 RU
# T1 sequence (heavy, as listed by the source limits assumed, chain 1 of 2): as the sequence (heavy, as listed by the source limits assumed, chain 1 of 2, other chains not shown) above, with A40S, V93I counted along it
# T1 sequence (light, as listed by the source limits assumed, chain 2 of 2): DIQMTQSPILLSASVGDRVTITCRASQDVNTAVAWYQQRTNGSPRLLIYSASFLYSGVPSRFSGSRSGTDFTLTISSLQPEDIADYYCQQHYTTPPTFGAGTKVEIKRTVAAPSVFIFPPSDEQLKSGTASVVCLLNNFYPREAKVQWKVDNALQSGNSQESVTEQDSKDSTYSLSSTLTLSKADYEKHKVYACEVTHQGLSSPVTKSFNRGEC
binder,measurement,setting,value
"Protein L (single Fab binding domain) (other, also called Protein L (only); protein L alone) EVTIKVNLIFADGKIQTAEFKGTFEEATAEAYRYAALLAKVNGEYTADLEDGGNHMNIKFAG",Kd,[1],~500 nM
"meditope-Protein L fusion protein (MPL), linker GGGGS (designed binder, the two cysteines cyclized (disulfide), Labeled with AF647 in cell assays; also called MPL (L3); MPL (WT)) SCQFDLSTRRLKCGGGGSEVTIKVNLIFADGKIQTAEFKGTFEEATAEAYRYAALLAKVNGEYTADLEDGGNHMNIKFAG",binding result,[2],binds
same,binding result,[3],binds
same,binding result,[4],no binding (tested: 1 µM)
same,binding result,[5],no binding (tested: 0.1 µM or 1 µM MPL)
meditope-Protein L fusion in which all but one lysine were mutated to arginine or asparagine (MPL-5K) (designed binder) SCQFDLSTRRLRCGGGGSEVTIRVNLIFADGNIQTAEFRGTFEEATAEAYRYAALLARVNGEYTADLEDGGNHMNIKFAG,binding result,[6],no binding (tested: 1 µM)
same,binding result,[5],no binding
"CQYNLSSRALKC (disulfide 1-12, also called meditope 2) [cQYN meditope (cyclic CQYNLSSRALKC)]",binding result,[7],binds
Ac-CQFDLSTRRLRCGGGSK (disulfide 1-12; also: fluorescein attached in labeled form for polarization assay) [meditope 31 (AcC-QFDLSTRRLR-CGGGSK)],binding result,[7],binds
"CQFD[Dip]STRRLKC (disulfide 1-12, also called CQFDA(diphenyl)STRRLKC; 5-diphenyl meditope) [meditope 18 (C-QFDXSTRRLK-C)]",Kd,[8],438 nM
same,koff,[8],0.015 s⁻¹
same,kon,[8],34300 M⁻¹ s⁻¹

# Source: US20140113348A1 (CITY OF HOPE, published 2014)
